Consider six variants from IntAct's records for PubMed 19942853.

First the molecules themselves.
B1: Cullin-associated NEDD8-dissociated protein 1 homolog (Saccharomyces cerevisiae), Q92325 (parent)
chain: MSLHISKLIEQYRSTKDNDLKYMLLRQNFKINDIEDELAPLVNELLLPVLVEEQDMEILNLVSFQVLPDLVLSMISDPAAAQLGWVISLICDPLLNQSMIHANRSFVLIETLRNVLQKIENSPHLDYHQPVNSSLEFISKFIVEMKRHMCDVDAAQLSHSLSESNMLIYIESLNLLLKFSFFSDAASPSVMVTLPFDILNDVFTIAQDYSATNTNESIDRITEKLLLTSTQLTHPVDLENLCPKMKYNTLAAVSRIWYKFGPIVDKLFTNRLLPVLFPPQMGEECNVEDVLEIVHNFHPYFSIRRLKDNRPLLSDSTISQLREGLFGMLSILNDSLTRTQNENDHGSDNLIDSDDGFGSDNDPEQQAYLDELVSEGYDENMYDGDTDDEDADDINVEKNDEATKDITETNKILLIFSELHYPQEERFSELLVELQTKIAINTSLIDKILSKETTELPTHNGEIADLNEILNEVKGNKPIRKNVIFCTLAHTLSLQSGSELSVLQLSIEVIDHLLVKNHSNNITRGEQFQLIKLILPHLKTNKSFIDTLKAGNFTQKIDEGVTLRTMILSLLLQLFPLDYSMLGEILPTIARYSVRDKDLGVRDLSFQLLDQILRTYYNYLIGIDWEWYKDDFYQVLQETCIKKDINTNLLLQFPPYLPHD
partner: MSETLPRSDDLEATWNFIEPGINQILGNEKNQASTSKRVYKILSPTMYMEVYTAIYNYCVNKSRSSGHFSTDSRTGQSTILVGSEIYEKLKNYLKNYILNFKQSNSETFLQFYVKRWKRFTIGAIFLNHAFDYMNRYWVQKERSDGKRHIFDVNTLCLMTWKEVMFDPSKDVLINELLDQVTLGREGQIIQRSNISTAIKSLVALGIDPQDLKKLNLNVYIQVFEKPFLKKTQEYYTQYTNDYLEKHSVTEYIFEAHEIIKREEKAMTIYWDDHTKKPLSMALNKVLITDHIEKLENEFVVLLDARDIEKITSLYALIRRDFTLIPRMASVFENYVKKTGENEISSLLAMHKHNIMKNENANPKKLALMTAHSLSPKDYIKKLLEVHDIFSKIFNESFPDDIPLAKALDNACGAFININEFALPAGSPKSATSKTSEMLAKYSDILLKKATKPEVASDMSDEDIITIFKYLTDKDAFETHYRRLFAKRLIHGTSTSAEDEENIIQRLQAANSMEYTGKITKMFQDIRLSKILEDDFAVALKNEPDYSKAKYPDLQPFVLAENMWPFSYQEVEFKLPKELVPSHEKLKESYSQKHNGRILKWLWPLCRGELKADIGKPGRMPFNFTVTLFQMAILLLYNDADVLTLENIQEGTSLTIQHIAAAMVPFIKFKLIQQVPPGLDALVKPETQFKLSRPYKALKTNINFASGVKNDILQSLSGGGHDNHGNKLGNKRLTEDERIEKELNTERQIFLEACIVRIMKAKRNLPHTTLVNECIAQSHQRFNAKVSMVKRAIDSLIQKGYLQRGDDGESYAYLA

Variants of B1 are the subject of the first assay. The note with it: with cdc53_yeast CDC53, Q12018.
In the case of D17A, the “effect of a mutation on the interaction” value is recorded as “disrupting interaction”.

Regarding M23A, the “effect of a mutation on the interaction” value is reported as “disrupting interaction”. Consider Y22A, for which the “effect of a mutation on the interaction” value is given as “disrupting interaction”. Regarding D19A, the “effect of a mutation on the interaction” value is recorded as “disrupting interaction”.

In a further assay the parent is B1. Conditions: with cdc53_yeast CDC53, Q12018. This is another data set of the same source.
On to N552A, for which the “effect of a mutation on the interaction” value is reported as “decreasing interaction”.

For G551A, the “effect of a mutation on the interaction” value is “decreasing interaction”.
